The Human Domainome abundance scans (Beltran et al. 2025)
± gives the uncertainty stated by the source.

B1: E3 ubiquitin-protein ligase TRIM36, residues 208 to 252; numbered along this chain, Q9NQ86 (parent)
chain: KILMCPEHETERINMYCELCRRPVCHLCKLGGNHANHRVTTMSSA

Variants of: B1
Experiment: abundance fitness (aPCA) (normalised: wild type 0, dead -1); higher = more abundant; growth selection in yeast, the domain comes from the species named
Details: Homo sapiens

| Variant | abundance fitness |
| --- | --- |
| LILMCPEHETERINMYCELCRRPVCHLCKLGGNHANHRVTTMSSA [K1L] | -0.388 ± 0.092 |
| KILMCPEHETERINMYCELCRRPVCHLCKLGGNHANHRVTSMSSA [T41S] | -0.043 ± 0.056 |
| KILMCPEHETERINMYCRLCRRPVCHLCKLGGNHANHRVTTMSSA [E18R] | -0.385 ± 0.054 |
| KILMCPEHETERINMYCELCDRPVCHLCKLGGNHANHRVTTMSSA [R21D] | 0.067 ± 0.11 |
| KILMCPEHETERINMYCELCRRNVCHLCKLGGNHANHRVTTMSSA [P23N] | -0.032 ± 0.077 |
| IILMCPEHETERINMYCELCRRPVCHLCKLGGNHANHRVTTMSSA [K1I] | -0.291 ± 0.14 |
| KILMCPEHETERINMYCELCRRPVCHLCKLGGNHANHIVTTMSSA [R38I] | -0.11 ± 0.087 |
| KILMCPEHETERINMYCELCRRPVCHLCGLGGNHANHRVTTMSSA [K29G] | -0.009 ± 0.048 |
| KILMCPEHETERINMYCELCRRPVCHQCKLGGNHANHRVTTMSSA [L27Q] | 0.019 ± 0.061 |
| KILMCPEHETERINMYCELCRRPVCHLCKLGGNHANHRVTTISSA [M42I] | -0.282 ± 0.081 |
| KILMCPEHETERINMYCELCRRPVCHLCKLGGNHANHRVTTMSSN [A45N] | -0.549 ± 0.46 |
| KILMCPEHETYRINMYCELCRRPVCHLCKLGGNHANHRVTTMSSA [E11Y] | 0.082 ± 0.27 |
| KILMCPEHETERINMYCELSRRPVCHLCKLGGNHANHRVTTMSSA [C20S] | -0.679 ± 0.064 |
| KILMCPEHETERINMYCELCRRPVCHLCKQGGNHANHRVTTMSSA [L30Q] | 0.067 ± 0.056 |
| KILMCPEHETERINMYCELCRRPVCHLCKLGGNHANHRVTTMYSA [S43Y] | -0.439 ± 0.12 |
| KILMCPEHETERINMYCELCRRPVQHLCKLGGNHANHRVTTMSSA [C25Q] | -0.532 ± 0.069 |
| KILMCPEHETERINMYCELCRRPVCHLCKLGGNHANHRMTTMSSA [V39M] | 0.028 ± 0.072 |
| KILMCPEHETERINMYCELCRRPVCHLCKRGGNHANHRVTTMSSA [L30R] | 0.045 ± 0.049 |
| KILMCPEHETERINMYCELCRRPVCHLCKLGGNHAAHRVTTMSSA [N36A] | 0.029 ± 0.049 |

| Variant | abundance fitness |
| --- | --- |
| KILHCPEHETERINMYCELCRRPVCHLCKLGGNHANHRVTTMSSA [M4H] | -0.133 ± 0.057 |
| KILMVPEHETERINMYCELCRRPVCHLCKLGGNHANHRVTTMSSA [C5V] | -0.907 ± 0.077 |
| KILMCPEHETERINMYCELCRRPVCHLCKLEGNHANHRVTTMSSA [G31E] | -0.111 ± 0.063 |
| KILMCPEHETERINMYCELCRRPVMHLCKLGGNHANHRVTTMSSA [C25M] | -0.618 ± 0.1 |
| KILMCPEHETERINMYCELCRRPVCHLCKLGGNHANHRVTTMSVA [S44V] | -0.047 ± 0.052 |
| AILMCPEHETERINMYCELCRRPVCHLCKLGGNHANHRVTTMSSA [K1A] | -0.25 ± 0.068 |
| KWLMCPEHETERINMYCELCRRPVCHLCKLGGNHANHRVTTMSSA [I2W] | -0.405 ± 0.062 |
| KIGMCPEHETERINMYCELCRRPVCHLCKLGGNHANHRVTTMSSA [L3G] | -0.016 ± 0.045 |
| KILMCPEHETERINMYCELCRRPVFHLCKLGGNHANHRVTTMSSA [C25F] | -0.752 ± 0.23 |
| KILMCPEHETERINMYCELCRRPVCHLCKLGINHANHRVTTMSSA [G32I] | -0.276 ± 0.1 |
| KILMCPEHETERINMYCELCRRPVCHLCPLGGNHANHRVTTMSSA [K29P] | -0.043 ± 0.065 |
| KILMCPEHETERINMYCELCRRPVCHLCKLGGNHANHRVTAMSSA [T41A] | -0.111 ± 0.062 |
| KILMCPENETERINMYCELCRRPVCHLCKLGGNHANHRVTTMSSA [H8N] | -0.819 ± 0.089 |
| KILMCPEHETERINMYCEICRRPVCHLCKLGGNHANHRVTTMSSA [L19I] | 0.04 ± 0.08 |
| KILSCPEHETERINMYCELCRRPVCHLCKLGGNHANHRVTTMSSA [M4S] | -0.203 ± 0.049 |
| KILMCPPHETERINMYCELCRRPVCHLCKLGGNHANHRVTTMSSA [E7P] | -0.783 ± 0.086 |
| KILMCPEHETERINMYCELCRRPVCHLCKLGGNHANHRVTTMHSA [S43H] | -0.067 ± 0.12 |
| KILMIPEHETERINMYCELCRRPVCHLCKLGGNHANHRVTTMSSA [C5I] | -1.14 ± 0.11 |
| KILMCPEHETERINCYCELCRRPVCHLCKLGGNHANHRVTTMSSA [M15C] | 0.12 ± 0.18 |

| Variant | abundance fitness |
| --- | --- |
| KILMCPEHETERINMYCELCRRPVYHLCKLGGNHANHRVTTMSSA [C25Y] | -0.805 ± 0.075 |
| KILMCPEHETERINMYCELCRRPVCHLCHLGGNHANHRVTTMSSA [K29H] | -0.066 ± 0.075 |
| KILMCPEHETERINMYCELCRRPVCHLCKLGGNHANARVTTMSSA [H37A] | -0.027 ± 0.051 |
| KILMCHEHETERINMYCELCRRPVCHLCKLGGNHANHRVTTMSSA [P6H] | -0.108 ± 0.095 |
| KILMCPEHETERINMYCELCRRPVCHLCKLGGNHANHRVTTMSPA [S44P] | 0.034 ± 0.056 |
| KILMCPEHETERINMYCELCRRPVCHLCKLPGNHANHRVTTMSSA [G31P] | -0.285 ± 0.051 |
| KILMCPEQETERINMYCELCRRPVCHLCKLGGNHANHRVTTMSSA [H8Q] | -0.716 ± 0.073 |
| KILMCEEHETERINMYCELCRRPVCHLCKLGGNHANHRVTTMSSA [P6E] | -0.016 ± 0.052 |
| KILMCPEHETERINMYCELCRRPVCHLCKLGGNHANHRVTTMKSA [S43K] | -0.145 ± 0.065 |
| KILMAPEHETERINMYCELCRRPVCHLCKLGGNHANHRVTTMSSA [C5A] | -0.82 ± 0.062 |
| KILMCTEHETERINMYCELCRRPVCHLCKLGGNHANHRVTTMSSA [P6T] | 0.018 ± 0.076 |
| KILMCPEHETERINMYCELCRRPVSHLCKLGGNHANHRVTTMSSA [C25S] | -0.665 ± 0.054 |
| KILMCPEHETERINMYCELCRRPVCHLCKLGNNHANHRVTTMSSA [G32N] | -0.228 ± 0.08 |
| KILMCPEHETERINMYCELCRRPVCHLCKLGGNHANHRVKTMSSA [T40K] | -0.112 ± 0.08 |
| KILMCPEHETERINMYCELCRRPVCHLCKVGGNHANHRVTTMSSA [L30V] | 0.026 ± 0.048 |
| KILMWPEHETERINMYCELCRRPVCHLCKLGGNHANHRVTTMSSA [C5W] | -1.41 ± 0.15 |
| KILMCPEHETERINMYCELCRRPVCHLCKLGGNCANHRVTTMSSA [H34C] | 0.033 ± 0.06 |
| KILMCPEHETERINMYCELIRRPVCHLCKLGGNHANHRVTTMSSA [C20I] | -1.01 ± 0.11 |
| KIYMCPEHETERINMYCELCRRPVCHLCKLGGNHANHRVTTMSSA [L3Y] | -0.008 ± 0.092 |
